Test results from patent publication US20260055398A1, “IMPROVED POLYMER DEGRADING ENZYMES” (CAMBRIDGE ENTERPRISE LIMITED, priority 2022, published 2026).

What was measured:
[1] = Enzymatic degradation of PET (nanoparticles, film), HPLC of released TPA and MHET; type: biochemical
Description: (A) Sequence network of currently known PETases and a novel esterase metagenomic-derived, RR11O2. […] Grey nodes represent sequences extracted from MGnify and NCBI. Red node represents RR11O2, blue nodes represent known PETases, green and orange nodes represent reported cutinases and esterases showing PET activity, respectively, and light blue nodes represent described polyester degrading enzymes in the literature. To putatively characterise sequence clusters, the identification of PETases, cutinases, esterases and RR11O2 in the network helped to define the potential clusters. The cluster of RR11O2, CI5En2 and PETase are written in grey. (B) PET hydrolases catalyze the depolymerization of poly(ethylene terephthalate) (PET) to bis(2-hydroxyethyl) terephthalate (BHET), mono(2-hydroxyethyl)-terephthalic (MHET) or terephthalic acid (TPA) and ethylene glycol (EG). During characterizations via high-performance liquid chromatography (HPLC) MHET and TPA have been identified as main products. […] Absorbance at 250 nm was monitored.
(A) Enrichment of variants with higher activity compared to wildtype after sorting the ep-PCR library of CI5En2. […] Amount of the released monomers TPA and MHET was determined via HPLC and corresponding standard curves for TPA and MHET. […]
HPLC analysis of the products released after one week incubation at 30° C. using 6 μM pExp-bla-CI5En2-WT. Absorbance at 250 nm was monitored which detects released TPA and MHET.
To detect the release of TPA, MHET and BHET in the presence of various enzymes, aliquots were taken from reaction mixtures, turnover was stopped by addition of an equal volume of methanol containing 0.5% formic acid, centrifuged (16,100×g, 15 min) and analysed by HPLC (1260 Infinity II, Agilent; Nucleodur C18 analytical EC standard column (5 μm, 4×125 mm, Macherey-Nagel, Germany). As the mobile phase mixtures of buffer A (0.1% formic acid in distilled water) and buffer C (distilled water), as well as buffer D (acetonitrile) were used at a flow rate of 1 mL/min. Buffer A was kept at 20% for the whole run. […]

[2] = Light scattering of microdroplets with enzyme and PET nanoparticles; type: biochemical; conditions: 600 nM enzyme co-encapsulated with PET nanoparticles, versus buffer control
Method: (A) As described in FIG. 1, for the screening of metagenomic libraries for esterase activity isolated environmental DNA (eDNA) was cloned into plasmids. After the transformation of bacterial cells, single ones were co-encapsulated in microdroplets with lysis agent and the fluorescein dihexanoate substrate. After an off-chip incubation, the droplets were reinjected into the FADS sorting device and positive hits selected. After DNA recovery the re-screening and sequencing lead to a novel esterase showing promiscuous activity on PET. This enzyme was used to generate a sequence network together with known PETases. CI5En2 was identified in of the clusters as a novel PET hydrolase. This enzyme was subjected to a directed evolution campaign. Single bacterial cells were encapsulated in microdroplets together with lysis agent and PET nanoparticles serving as the substrate of the assay. Droplets were incubated in droplet chambers and reinjected into the sorting module. The SADS module relies on fiber optics integrated into a chip at a 90° angle. Schematic picture showing the main principle of the assay. […] The dielectrophoretic sorting of “positive” droplets is triggered when the measured value is within a user-defined threshold. (C) Histogram of the detected light scattering for co-encapsulated CI5En2 (600 nM) or a buffer control and PET nanoparticles. […]

B1: CI5En2: novel PET hydrolase identified from a sequence network cluster; amino acid SEQ ID NO. 2 (protein)
chain: MADYAKGPAPTVALLTAPAGPYQTATYKIAAADAKAFNYGGATVHYPVAKAPGETFGVVVMVPGFLAFQAVYDWLVSRVASHGFVVVNMDTVGRGDYPDERAEQAAGALRHVVSLAQAGTAPYAPVADTSRRAVMGNSMGGGASLSAAVVDPTLKAVVALQPWHTTKSFTGVASPTLVVACEKDSIAPNKSHSDVFYNSLSAALPRAEIEMRGAGHLCATFLATAAQKTTMAKSSVAWLKRFLDNDMRYDAMVKGGIDQGEFSRFVV
modifications: C15EN2
activity against PET nanoparticles with different crystallinity ([1]; amorphous and crystalline PET NPs): showed activity | PET degrading activity compared with IsPETase and LCC ([1]; at 30° C.): activity comparable to IsPETase and higher than LCC | detected light scattering signal of droplets [2]: decreases over time
